Experimental data as given in US20240002497A1.

Legend:
[1] = target: huNav1.7α (human Nav1.7 alpha subunit, expressed without β subunits) (human) (UniProt Q15858); test: FACS, HEK293 cells; SD MFI 2
[2] = target: huNav1.7α + β1 (human Nav1.7α co-expressed with Navβ1) (human) (UniProt Q15858); test: FACS, HEK293 cells; SD MFI 6
[3] = target: huNav1.7α + β1-β2-β3 (human Nav1.7α co-expressed with Navβ1, Navβ2 and Navβ3) (human) (UniProt Q15858); test: FACS, CHO Flp-In cells; SD MFI 12

Mean MFI [1]: 723 MFI
Mean MFI [2]: 778 MFI
Mean MFI [3]: 566 MFI
Substance: Negative control (Table 33)
